For 97 variants, protein stability index results are on record in the supplement of paper PMC10567573.

The labels stand for the following.
B1: DLC1 (parent)
chain: AEVVKIRDSFSNQNTETKDTKSR
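Note: lentivirally expressed fusions sorted by FACS into six bins by GFP to DsRed ratio, PSI derived from sequencing read proportions per bin multiplied by bin number.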

This data set covers variants of B1. Kind of data set: protein stability index of a GFP-peptide fusion (GPS, HEK-293T) (PSI 1-6); higher = more stable. The note with it: c terminus: native.
For AEVVKIRDSFSNANTETKDTKSR [Q13A], the protein stability index was 2.41.

AEVVKIRDSFSNFNTETKDTKSR [Q13F]: the protein stability index came to 2.26.

Take AEVVKIRDSFSNHNTETKDTKSR [Q13H]: the protein stability index came out at 2.32.

In the case of AEVVKIRDSFSNDNTETKDTKSR [Q13D], the protein stability index came to 2.37.

Turning to AEVVKIRDSFSNCNTETKDTKSR [Q13C], the protein stability index came out at 1.93.

Consider AEVVKIRDSFSNGNTETKDTKSR [Q13G], for which the protein stability index was determined as 2.33.

Turning to AEVVKIRDSFSNENTETKDTKSR [Q13E], the protein stability index worked out at 2.9.

In the case of AEVVKIRDSFSFQNTETKDTKSR [N12F], the protein stability index was determined as 1.81.

For AEVVKIRDSFSKQNTETKDTKSR [N12K], the protein stability index stood at 2.17.

Take AEVVKIRDSFSRQNTETKDTKSR [N12R]: the protein stability index came to 1.7.

Regarding AEVVKIRDSFSMQNTETKDTKSR [N12M], the protein stability index amounted to 2.5.

Turning to AEVVKIRDSFSLQNTETKDTKSR [N12L], the protein stability index was 3.05.

In the case of AEVVKIRDSFSQQNTETKDTKSR [N12Q], the protein stability index is 2.03.

Consider AEVVKIRDSFSPQNTETKDTKSR [N12P], for which the protein stability index amounted to 1.95.

Regarding AEVVKIRDSFSCQNTETKDTKSR [N12C], the protein stability index was 1.63.

On to AEVVKIRDSFSYQNTETKDTKSR [N12Y], for which the protein stability index is 1.78.

On to AEVVKIRDSFSIQNTETKDTKSR [N12I], for which the protein stability index was found to be 2.17.

For AEVVKIRDSFSEQNTETKDTKSR [N12E], the protein stability index was determined as 2.71.

AEVVKIRDSFSTQNTETKDTKSR [N12T]: the protein stability index was 2.23.

For AEVVKIRDSFSSQNTETKDTKSR [N12S], the protein stability index stood at 1.86.

For AEVVKIRDSFSGQNTETKDTKSR [N12G], the protein stability index came out at 2.51.

For AEVVKIRDSFSHQNTETKDTKSR [N12H], the protein stability index was found to be 2.44.

AEVVKIRDSFSVQNTETKDTKSR [N12V]: the protein stability index stood at 1.68.

Regarding AEVVKIRDSFSAQNTETKDTKSR [N12A], the protein stability index was found to be 2.33.

As for AEGVKIRDSFSNQNTETKDTKSR [V3G], the protein stability index was 2.12.

As for AENVKIRDSFSNQNTETKDTKSR [V3N], the protein stability index is 3.

As for AEIVKIRDSFSNQNTETKDTKSR [V3I], the protein stability index worked out at 1.63.

Regarding AEMVKIRDSFSNQNTETKDTKSR [V3M], the protein stability index was 2.87.

With AEFVKIRDSFSNQNTETKDTKSR [V3F], the protein stability index was 2.09.

Take AEAVKIRDSFSNQNTETKDTKSR [V3A]: the protein stability index was 2.24.

As to AEKVKIRDSFSNQNTETKDTKSR [V3K], the protein stability index was 4.55.

Consider AEQVKIRDSFSNQNTETKDTKSR [V3Q], for which the protein stability index was determined as 2.47.

On to AEYVKIRDSFSNQNTETKDTKSR [V3Y], for which the protein stability index worked out at 1.7.

As for AEWVKIRDSFSNQNTETKDTKSR [V3W], the protein stability index turned out to be 2.53.

With AEDVKIRDSFSNQNTETKDTKSR [V3D], the protein stability index came to 3.54.

For the variant AELVKIRDSFSNQNTETKDTKSR [V3L], the protein stability index turned out to be 2.29.

In the case of AERVKIRDSFSNQNTETKDTKSR [V3R], the protein stability index worked out at 1.89.

In the case of AEEVKIRDSFSNQNTETKDTKSR [V3E], the protein stability index stood at 2.12.

Turning to AECVKIRDSFSNQNTETKDTKSR [V3C], the protein stability index was determined as 2.69.

For AEHVKIRDSFSNQNTETKDTKSR [V3H], the protein stability index worked out at 2.

AETVKIRDSFSNQNTETKDTKSR [V3T]: the protein stability index was found to be 2.19.

Take AEPVKIRDSFSNQNTETKDTKSR [V3P]: the protein stability index turned out to be 3.46.

Turning to AESVKIRDSFSNQNTETKDTKSR [V3S], the protein stability index is 1.95.

For AEVVKIRESFSNQNTETKDTKSR [D8E], the protein stability index is 2.92.

In the case of AEVVKIRMSFSNQNTETKDTKSR [D8M], the protein stability index stood at 1.65.

For the variant AEVVKIRNSFSNQNTETKDTKSR [D8N], the protein stability index stood at 2.07.

On to AEVVKIRGSFSNQNTETKDTKSR [D8G], for which the protein stability index was found to be 2.23.

For the variant AEVVKIRHSFSNQNTETKDTKSR [D8H], the protein stability index turned out to be 2.41.

AEVVKIRASFSNQNTETKDTKSR [D8A]: the protein stability index is 2.53.

With AEVVKIRCSFSNQNTETKDTKSR [D8C], the protein stability index came to 1.46.

Take AEVVKIRPSFSNQNTETKDTKSR [D8P]: the protein stability index amounted to 1.73.

Take AEVVKIRLSFSNQNTETKDTKSR [D8L]: the protein stability index amounted to 2.62.

With AEVVKIRSSFSNQNTETKDTKSR [D8S], the protein stability index came out at 1.8.

In the case of AEVVKIRFSFSNQNTETKDTKSR [D8F], the protein stability index was 3.02.

Consider AEVVKIRQSFSNQNTETKDTKSR [D8Q], for which the protein stability index was determined as 1.26.

Take AEVVKIRTSFSNQNTETKDTKSR [D8T]: the protein stability index stood at 2.32.

On to AEVVKIRKSFSNQNTETKDTKSR [D8K], for which the protein stability index was 2.08.

Consider AEVVKIRVSFSNQNTETKDTKSR [D8V], for which the protein stability index was 3.31.

In the case of AEVVKIRYSFSNQNTETKDTKSR [D8Y], the protein stability index stood at 3.5.

AEVVKIRDHFSNQNTETKDTKSR [S9H]: the protein stability index was 3.54.

As for AEVVKIRDVFSNQNTETKDTKSR [S9V], the protein stability index stood at 2.25.

In the case of AEVVKIRDCFSNQNTETKDTKSR [S9C], the protein stability index is 2.8.

On to AEVVKIRDEFSNQNTETKDTKSR [S9E], for which the protein stability index worked out at 3.48.

AEVVKIRDTFSNQNTETKDTKSR [S9T]: the protein stability index was 2.29.

In the case of AEVVKIRDYFSNQNTETKDTKSR [S9Y], the protein stability index amounted to 1.67.

Turning to AEVVKIRDIFSNQNTETKDTKSR [S9I], the protein stability index amounted to 1.49.

For AEVVKIRDAFSNQNTETKDTKSR [S9A], the protein stability index came to 2.55.

With AEVVKIRDWFSNQNTETKDTKSR [S9W], the protein stability index stood at 2.14.

For the variant AEVVKIRDKFSNQNTETKDTKSR [S9K], the protein stability index was 2.32.

As to AEVVKIRDFFSNQNTETKDTKSR [S9F], the protein stability index came out at 1.48.

With AEVVKIRDLFSNQNTETKDTKSR [S9L], the protein stability index amounted to 2.95.

As to AEVVKIRDDFSNQNTETKDTKSR [S9D], the protein stability index was found to be 2.27.

With AEVVKIRDQFSNQNTETKDTKSR [S9Q], the protein stability index turned out to be 1.87.

AEVVKIRDPFSNQNTETKDTKSR [S9P]: the protein stability index came to 2.64.

On to AEVVKIRDNFSNQNTETKDTKSR [S9N], for which the protein stability index came out at 2.22.

On to AEVVKIRDRFSNQNTETKDTKSR [S9R], for which the protein stability index was 2.53.

AEVVKIRDMFSNQNTETKDTKSR [S9M]: the protein stability index worked out at 2.92.

As to AEVVKIRDGFSNQNTETKDTKSR [S9G], the protein stability index came out at 2.

On to AEVCKIRDSFSNQNTETKDTKSR [V4C], for which the protein stability index is 2.3.

On to AEVFKIRDSFSNQNTETKDTKSR [V4F], for which the protein stability index stood at 2.89.

As to AEVKKIRDSFSNQNTETKDTKSR [V4K], the protein stability index was determined as 2.3.

AEVQKIRDSFSNQNTETKDTKSR [V4Q]: the protein stability index was 2.81.

AEVEKIRDSFSNQNTETKDTKSR [V4E]: the protein stability index came out at 2.59.

As to AEVPKIRDSFSNQNTETKDTKSR [V4P], the protein stability index was found to be 3.04.

As for AEVIKIRDSFSNQNTETKDTKSR [V4I], the protein stability index amounted to 1.98.

On to AEVWKIRDSFSNQNTETKDTKSR [V4W], for which the protein stability index is 2.05.

As for AEVMKIRDSFSNQNTETKDTKSR [V4M], the protein stability index worked out at 2.05.

As for AEVGKIRDSFSNQNTETKDTKSR [V4G], the protein stability index worked out at 2.01.

As to AEVNKIRDSFSNQNTETKDTKSR [V4N], the protein stability index was determined as 2.48.

On to AEVAKIRDSFSNQNTETKDTKSR [V4A], for which the protein stability index came out at 1.73.

In the case of AEVDKIRDSFSNQNTETKDTKSR [V4D], the protein stability index was found to be 3.04.

Consider AEVSKIRDSFSNQNTETKDTKSR [V4S], for which the protein stability index was 2.12.

On to AEVYKIRDSFSNQNTETKDTKSR [V4Y], for which the protein stability index turned out to be 2.76.

For the variant AEVLKIRDSFSNQNTETKDTKSR [V4L], the protein stability index was 4.87.

For the variant AEVHKIRDSFSNQNTETKDTKSR [V4H], the protein stability index was determined as 2.14.

Take AEVRKIRDSFSNQNTETKDTKSR [V4R]: the protein stability index stood at 2.3.

Regarding AEVTKIRDSFSNQNTETKDTKSR [V4T], the protein stability index turned out to be 2.18.
